In US20070295907A1 one finds fluorescent intensity when excited data, which are given here for 1 substance.

The experiment has as its target GFP-TIpA fusion protein (Salmonella typhimurium) [GFP: P42212]. As to the kind of experiment: cell-based or functional assay.

“GFP-TIpA fusion protein (from UniProt P42212 1-238)” showed a fluorescent intensity when excited at 395 nm, temperature raised from 10° C. to 55° C. of 30%.
